Patent publication US20250340854, “ENGINEERED Cas12f PROTEIN” (THE UNIVERSITY OF TOKYO, published 2025)

Key:
Cas12f RARR = biological target: T1, Cas12f RARR (uncultured archaeon, UniProt A0A482D308 SEQ:1-529, I118R,Y122A,I126R,M178R); test: size exclusion co-elution; 5 mM MgCl2, 50 mM NaCl, pH 8.0; details: tags: N-terminal His6; chain copies: 2 (stated)
T1 sequence: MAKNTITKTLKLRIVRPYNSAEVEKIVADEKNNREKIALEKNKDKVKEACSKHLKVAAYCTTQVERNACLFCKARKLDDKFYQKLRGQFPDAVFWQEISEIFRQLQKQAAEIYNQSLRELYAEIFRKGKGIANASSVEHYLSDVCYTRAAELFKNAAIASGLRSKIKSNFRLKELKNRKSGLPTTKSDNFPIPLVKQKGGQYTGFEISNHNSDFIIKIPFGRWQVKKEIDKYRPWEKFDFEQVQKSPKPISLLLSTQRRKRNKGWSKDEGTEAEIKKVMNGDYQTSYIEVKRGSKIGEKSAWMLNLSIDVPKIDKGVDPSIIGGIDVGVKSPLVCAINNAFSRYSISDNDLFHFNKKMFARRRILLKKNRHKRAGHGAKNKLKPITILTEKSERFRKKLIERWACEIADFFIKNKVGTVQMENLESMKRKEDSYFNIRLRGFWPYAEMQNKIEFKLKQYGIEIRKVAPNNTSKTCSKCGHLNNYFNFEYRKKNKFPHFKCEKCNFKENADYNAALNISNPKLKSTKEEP
Method: (§1) The peak fraction was analyzed by SDS-PAGE and Urea PAGE. The WT Cas12f protein and the RARR mutant were each eluted together with sgRNA at the same position.

Cas12f (Cas12f1, Cas14a) = biological target: T2, Cas12f (Cas12f1, Cas14a) (uncultured archaeon, UniProt A0A482D308 SEQ:1-529); test: as above; details: tags: N-terminal His6; chain copies: 2 (stated)
T2 sequence: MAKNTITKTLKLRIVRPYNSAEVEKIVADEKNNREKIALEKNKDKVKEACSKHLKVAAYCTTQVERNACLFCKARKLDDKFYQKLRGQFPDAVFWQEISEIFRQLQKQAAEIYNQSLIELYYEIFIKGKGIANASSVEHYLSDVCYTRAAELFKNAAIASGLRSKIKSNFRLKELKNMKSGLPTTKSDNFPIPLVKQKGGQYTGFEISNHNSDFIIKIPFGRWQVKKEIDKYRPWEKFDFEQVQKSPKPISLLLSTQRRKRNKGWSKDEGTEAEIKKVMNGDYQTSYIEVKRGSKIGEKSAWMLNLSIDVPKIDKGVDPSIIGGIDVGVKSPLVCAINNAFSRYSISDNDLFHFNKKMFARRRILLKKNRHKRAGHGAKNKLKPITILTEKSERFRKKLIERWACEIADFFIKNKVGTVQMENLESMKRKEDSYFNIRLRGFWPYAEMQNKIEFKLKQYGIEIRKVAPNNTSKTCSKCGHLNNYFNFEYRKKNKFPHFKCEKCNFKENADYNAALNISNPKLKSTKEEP
Method: as §1

Row | Binder | in vitro DNA cleavage activity | binding result (Cas12f RARR) | binding result (Cas12f (Cas12f1, Cas14a))
1 | Cas12f I118R mutant (protein) MAKNTITKTLKLRIVRPYNSAEVEKIVADEKNNREKIALEKNKDKVKEACSKHLKVAAYCTTQVERNACLFCKARKLDDKFYQKLRGQFPDAVFWQEISEIFRQLQKQAAEIYNQSLRELYYEIFIKGKGIANASSVEHYLSDVCYTRAAELFKNAAIASGLRSKIKSNFRLKELKNMKSGLPTTKSDNFPIPLVKQKGGQYTGFEISNHNSDFIIKIPFGRWQVKKEIDKYRPWEKFDFEQVQKSPKPISLLLSTQRRKRNKGWSKDEGTEAEIKKVMNGDYQTSYIEVKRGSKIGEKSAWMLNLSIDVPKIDKGVDPSIIGGIDVGVKSPLVCAINNAFSRYSISDNDLFHFNKKMFARRRILLKKNRHKRAGHGAKNKLKPITILTEKSERFRKKLIERWACEIADFFIKNKVGTVQMENLESMKRKEDSYFNIRLRGFWPYAEMQNKIEFKLKQYGIEIRKVAPNNTSKTCSKCGHLNNYFNFEYRKKNKFPHFKCEKCNFKENADYNAALNISNPKLKSTKEEP | reduced the DNA cleavage activity | – | –
2 | Cas12f I118R/Y122A/I126R/M178R (RARR) mutant (protein) MAKNTITKTLKLRIVRPYNSAEVEKIVADEKNNREKIALEKNKDKVKEACSKHLKVAAYCTTQVERNACLFCKARKLDDKFYQKLRGQFPDAVFWQEISEIFRQLQKQAAEIYNQSLRELYAEIFRKGKGIANASSVEHYLSDVCYTRAAELFKNAAIASGLRSKIKSNFRLKELKNRKSGLPTTKSDNFPIPLVKQKGGQYTGFEISNHNSDFIIKIPFGRWQVKKEIDKYRPWEKFDFEQVQKSPKPISLLLSTQRRKRNKGWSKDEGTEAEIKKVMNGDYQTSYIEVKRGSKIGEKSAWMLNLSIDVPKIDKGVDPSIIGGIDVGVKSPLVCAINNAFSRYSISDNDLFHFNKKMFARRRILLKKNRHKRAGHGAKNKLKPITILTEKSERFRKKLIERWACEIADFFIKNKVGTVQMENLESMKRKEDSYFNIRLRGFWPYAEMQNKIEFKLKQYGIEIRKVAPNNTSKTCSKCGHLNNYFNFEYRKKNKFPHFKCEKCNFKENADYNAALNISNPKLKSTKEEP | lacked the DNA cleavage activity | – | –
3 | Cas12f I126R mutant (protein) MAKNTITKTLKLRIVRPYNSAEVEKIVADEKNNREKIALEKNKDKVKEACSKHLKVAAYCTTQVERNACLFCKARKLDDKFYQKLRGQFPDAVFWQEISEIFRQLQKQAAEIYNQSLIELYYEIFRKGKGIANASSVEHYLSDVCYTRAAELFKNAAIASGLRSKIKSNFRLKELKNMKSGLPTTKSDNFPIPLVKQKGGQYTGFEISNHNSDFIIKIPFGRWQVKKEIDKYRPWEKFDFEQVQKSPKPISLLLSTQRRKRNKGWSKDEGTEAEIKKVMNGDYQTSYIEVKRGSKIGEKSAWMLNLSIDVPKIDKGVDPSIIGGIDVGVKSPLVCAINNAFSRYSISDNDLFHFNKKMFARRRILLKKNRHKRAGHGAKNKLKPITILTEKSERFRKKLIERWACEIADFFIKNKVGTVQMENLESMKRKEDSYFNIRLRGFWPYAEMQNKIEFKLKQYGIEIRKVAPNNTSKTCSKCGHLNNYFNFEYRKKNKFPHFKCEKCNFKENADYNAALNISNPKLKSTKEEP | reduced the DNA cleavage activity | – | –
4 | Cas12f M178R mutant (protein) MAKNTITKTLKLRIVRPYNSAEVEKIVADEKNNREKIALEKNKDKVKEACSKHLKVAAYCTTQVERNACLFCKARKLDDKFYQKLRGQFPDAVFWQEISEIFRQLQKQAAEIYNQSLIELYYEIFIKGKGIANASSVEHYLSDVCYTRAAELFKNAAIASGLRSKIKSNFRLKELKNRKSGLPTTKSDNFPIPLVKQKGGQYTGFEISNHNSDFIIKIPFGRWQVKKEIDKYRPWEKFDFEQVQKSPKPISLLLSTQRRKRNKGWSKDEGTEAEIKKVMNGDYQTSYIEVKRGSKIGEKSAWMLNLSIDVPKIDKGVDPSIIGGIDVGVKSPLVCAINNAFSRYSISDNDLFHFNKKMFARRRILLKKNRHKRAGHGAKNKLKPITILTEKSERFRKKLIERWACEIADFFIKNKVGTVQMENLESMKRKEDSYFNIRLRGFWPYAEMQNKIEFKLKQYGIEIRKVAPNNTSKTCSKCGHLNNYFNFEYRKKNKFPHFKCEKCNFKENADYNAALNISNPKLKSTKEEP | reduced the DNA cleavage activity | – | –
5 | Cas12f Y122A mutant (protein) MAKNTITKTLKLRIVRPYNSAEVEKIVADEKNNREKIALEKNKDKVKEACSKHLKVAAYCTTQVERNACLFCKARKLDDKFYQKLRGQFPDAVFWQEISEIFRQLQKQAAEIYNQSLIELYAEIFIKGKGIANASSVEHYLSDVCYTRAAELFKNAAIASGLRSKIKSNFRLKELKNMKSGLPTTKSDNFPIPLVKQKGGQYTGFEISNHNSDFIIKIPFGRWQVKKEIDKYRPWEKFDFEQVQKSPKPISLLLSTQRRKRNKGWSKDEGTEAEIKKVMNGDYQTSYIEVKRGSKIGEKSAWMLNLSIDVPKIDKGVDPSIIGGIDVGVKSPLVCAINNAFSRYSISDNDLFHFNKKMFARRRILLKKNRHKRAGHGAKNKLKPITILTEKSERFRKKLIERWACEIADFFIKNKVGTVQMENLESMKRKEDSYFNIRLRGFWPYAEMQNKIEFKLKQYGIEIRKVAPNNTSKTCSKCGHLNNYFNFEYRKKNKFPHFKCEKCNFKENADYNAALNISNPKLKSTKEEP | reduced the DNA cleavage activity | – | –
6 | WT sgRNA (ssRNA) RNA: GGUUCACUGAUAAAGUGGAGAACCGCUUCACCAAAAGCUGUCCCUUAGGGGAUUAGAACUUGAGUGAAGGUGGGCUGCUUGCAUCAGCCUAAUGUCGAGAAGUGCUUUCUUCGGAAAGUAACCCUCGAAACAAAUUCAUUUGAAAGAAUGAAGGAAUGCAACGGAAAUUAGGUGCGCUUGGC | – | binds | binds
